Among the data in the supplement of paper PMC10126150 are switch fluorescence ratio values, retold here.

± gives the standard deviation of the averaged measurements.
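Further: ATP exposure 15 min at 22 °C before imaging.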

The test system of the data set is ATP. In words: switch fluorescence ratio, 500 uM ATP over buffer (Cy3 cluster intensity, sum of 5 cycles each) (fold (ratio)); higher = stronger signal-on switching upon ATP binding; sequences stand for … in TCGTCGGCAGCGTCAGATGTGTATAAGAGACAGTTTTTTTTTTTTTTTTTTTTTTTTT…TC. Conditions: aptamer strand: ATP DNA aptamer (quencher-CACCTGGGGGAGTATTGCGGAGGAAGG + anchor), 100 nM annealed; ATP concentration: 500 uM. The essentials: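 For every switch-domain sequence, the fluorescence ratio is the mean of per-cluster values, each being summed target-cycle Cy3 intensity over summed buffer-cycle Cy3 intensity. Clusters outside 100-1000 RFU were excluded. On a modified Illumina MiSeq flow-cell, the Cy3-labelled switching-strand clusters were annealed to 100 nM quencher-labelled ATP aptamer, imaged in selection buffer and then after 15 min with 500 uM ATP at 22 °C. Five such cycles were run, with NaOH stripping and re-annealing between them.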
Turning to TTAAGATTTT, the switch fluorescence ratio came out at 0.9935 ± 0.0053.

CCGTGTAGGG: the switch fluorescence ratio was 1.01 ± 0.034.

TTGGGGCCGA: the switch fluorescence ratio was determined as 0.956 ± 0.017.

Consider GATAGGGATG, for which the switch fluorescence ratio worked out at 1.001 ± 0.0062.

Regarding GGAGTTTAGT, the switch fluorescence ratio came out at 1.008 ± 0.0016.

As to ACCTGATTAT, the switch fluorescence ratio stood at 1.02 ± 0.02.

With ACGGGCGGGG, the switch fluorescence ratio turned out to be 1.02 ± 0.021.

On to GTGAAAGTGG, for which the switch fluorescence ratio was found to be 0.979 ± 0.028.

On to GTTATAGTCG, for which the switch fluorescence ratio stood at 0.999 ± 0.05.

Turning to TTTTTAGAGG, the switch fluorescence ratio amounted to 0.97 ± 0.041.

With GAGGGGCGCC, the switch fluorescence ratio came to 0.987 ± 0.016.

As to ATATATTGAG, the switch fluorescence ratio turned out to be 0.995 ± 0.019.

On to TTAGGTTAGA, for which the switch fluorescence ratio is 0.993 ± 0.014.

Regarding CTCTGAGCGG, the switch fluorescence ratio stood at 1.03 ± 0.048.

As to GTGACCTGGG, the switch fluorescence ratio was found to be 1.03 ± 0.026.

With TCAAATAGGA, the switch fluorescence ratio amounted to 1.01 ± 0.012.

Turning to GGGGGGGTAA, the switch fluorescence ratio stood at 0.993 ± 0.027.

Take ATCAGAGGTG: the switch fluorescence ratio is 1.14 ± 0.0059.

In the case of ACGTTTATGT, the switch fluorescence ratio is 1.02 ± 0.02.

As to GCTCCTGTGC, the switch fluorescence ratio turned out to be 1.1992 ± 0.00049.

For TGATCGGCGG, the switch fluorescence ratio came to 1.02 ± 0.05.

With GCCATAGGTC, the switch fluorescence ratio came to 1.012 ± 0.0043.

Consider GCGTCCGCGG, for which the switch fluorescence ratio was determined as 1.26 ± 0.041.

As to TTTGTCTATA, the switch fluorescence ratio worked out at 1 ± 0.017.

With AAAGTGGTGG, the switch fluorescence ratio was determined as 1.02 ± 0.039.

Consider GGGGTACGTT, for which the switch fluorescence ratio stood at 1 ± 0.032.

Take TTCGGAGGGC: the switch fluorescence ratio amounted to 0.996 ± 0.031.

As to GAGTCTGGT, the switch fluorescence ratio came out at 0.981 ± 0.036.

In the case of GTTAGATTGA, the switch fluorescence ratio is 0.96 ± 0.041.

Regarding CCAATTCAAG, the switch fluorescence ratio was 0.9977 ± 0.0073.

As for TGCGTTCAAG, the switch fluorescence ratio is 0.9721 ± 0.0056.

As to AGCATGTCGT, the switch fluorescence ratio worked out at 1.01 ± 0.015.

For CGGAGATTAC, the switch fluorescence ratio turned out to be 2.25 ± 0.035.

With GGGTATTATA, the switch fluorescence ratio was 0.996 ± 0.03.

With AGGTGCAGTG, the switch fluorescence ratio was found to be 1.015 ± 0.0042.

Consider GGAGTTGCGG, for which the switch fluorescence ratio is 0.9089 ± 0.0048.

For the sequence TGCGAAGGTT, the switch fluorescence ratio turned out to be 1.04 ± 0.069.

CGGTTTTGTT: the switch fluorescence ratio was determined as 1.02 ± 0.035.

In the case of GTGATTTGGT, the switch fluorescence ratio is 0.995 ± 0.019.

Take GGGACAATGA: the switch fluorescence ratio is 1 ± 0.038.

Turning to GACCTTAATT, the switch fluorescence ratio stood at 1.01 ± 0.025.

Take CTTAGATTTG: the switch fluorescence ratio came out at 0.9655 ± 0.0076.

Take GACTCAAGTT: the switch fluorescence ratio stood at 1.048 ± 0.0054.

Turning to ATTGGCGCGG, the switch fluorescence ratio was 0.969 ± 0.012.

On to ACTTACTTT, for which the switch fluorescence ratio was found to be 1.16 ± 0.021.

Regarding ATATTGGCTA, the switch fluorescence ratio was determined as 1 ± 0.0039.

As to ATGATACATA, the switch fluorescence ratio worked out at 1.02 ± 0.019.

Take AAAAGGGCAG: the switch fluorescence ratio is 0.986 ± 0.031.

Regarding GTATGGGGGA, the switch fluorescence ratio was determined as 1.01 ± 0.031.

Turning to TTAGGTTTAA, the switch fluorescence ratio came to 1.02 ± 0.021.

For the sequence TTTTGGGGCA, the switch fluorescence ratio was 1.07 ± 0.13.

With TCCAGGATAT, the switch fluorescence ratio is 1.03 ± 0.046.

Turning to ATGGTATCT, the switch fluorescence ratio stood at 1.08 ± 0.1.

Take GTCATAGTGT: the switch fluorescence ratio turned out to be 0.955 ± 0.037.

Take ATAATTGTTT: the switch fluorescence ratio worked out at 0.984 ± 0.042.

With GATTGTTTTG, the switch fluorescence ratio was found to be 1.01 ± 0.034.

On to CAGGGCCATG, for which the switch fluorescence ratio was determined as 1.009 ± 0.0014.

Take TTAGTAGGTC: the switch fluorescence ratio was determined as 0.992 ± 0.047.

For GGATTATGTA, the switch fluorescence ratio was 0.999 ± 0.026.

Regarding TTTTTGAAAC, the switch fluorescence ratio is 1.01 ± 0.027.

Regarding CGTGTGTTTT, the switch fluorescence ratio worked out at 1 ± 0.0068.

For the sequence TTCATTTTAG, the switch fluorescence ratio was found to be 1.02 ± 0.031.

As for TGGCGTTGGT, the switch fluorescence ratio amounted to 0.994 ± 0.056.

TTTTATTGTT: the switch fluorescence ratio was 1.01 ± 0.034.

On to AATGTAGTTT, for which the switch fluorescence ratio was 0.993 ± 0.032.

Take GGTTTAGCG: the switch fluorescence ratio was 1.014 ± 0.0025.

With TTGGTTATGC, the switch fluorescence ratio worked out at 0.998 ± 0.045.

Turning to TGTGGGTGGT, the switch fluorescence ratio came out at 1.01 ± 0.018.

On to GTCGTTAGGA, for which the switch fluorescence ratio is 1.01 ± 0.0038.

Turning to TAGGCTTTGT, the switch fluorescence ratio was found to be 1.01 ± 0.021.

On to TTTCTCGTCT, for which the switch fluorescence ratio worked out at 0.988 ± 0.011.

Regarding TTGAGAGCAA, the switch fluorescence ratio is 1.72 ± 0.18.

For TAGAGGGGGT, the switch fluorescence ratio was found to be 0.998 ± 0.039.

With TTTGCCTCGG, the switch fluorescence ratio turned out to be 0.984 ± 0.031.

For the sequence GGTATTGCGT, the switch fluorescence ratio is 0.977 ± 0.042.

For the sequence TGGGCTTTTT, the switch fluorescence ratio is 0.982 ± 0.041.

Turning to CGAATGTTGG, the switch fluorescence ratio amounted to 0.99 ± 0.041.

Regarding GGCACTATAA, the switch fluorescence ratio amounted to 1.03 ± 0.023.
